Among the data in PMC11629553, “Mechanistic diversity and functional roles define the substrate specificity and ligand binding of bacterial PGP phosphatases” (The Journal of Biological Chemistry, 2024) are Km values, retold here.

Like-named read-outs stand apart in the source and are kept apart here.

What all share (assay type): biochemical, Escherichia coli
Substrate in series [1]: CCCCCCCC/C=C\CCCCCCCC(=O)OC[C@@H](O)COP(=O)(O)O
The series is described as follows: phosphate release kinetics, surface dilution model (Km).

Substrate in series [2]: O=P(O)(O)OCC(O)CO
The experiment in a line: phosphate release kinetics, Michaelis-Menten (Km). The settings on record: Mg2+.

Substrate in series [3]: O=CC(O)COP(=O)(O)O
The series is described as follows: phosphate release kinetics, Michaelis-Menten (Km). Particulars: Mg2+.

B1: PgpA (Escherichia coli K-12) (protein)
chain: MTILPRHKDVAKSRLKMSNPWHLLAVGFGSGLSPIVPGTMGSLAAIPFWYLMTFLPWQLYSLVVMLGICIGVYLCHQTAKDMGVHDHGSIVWDEFIGMWITLMALPTNDWQWVAAGFVIFRILDMWKPWPIRWFDRNVHGGMGIMIDDIVAGVISAGILYFIGHHWPLGILS
notes: N-terminal His-tagged PgpA purified in DDM
Broadly, the Km is the substrate concentration at which the rate is half of its maximum. As to B1, the figures for the Michaelis constant (Km) in series [1] (Mg2+), in series [2] and in series [3] were 83.8 µM, 327 µM and 765 µM, respectively.

B2: PgpC (Escherichia coli K-12) (protein)
chain: MATHERRVVFFDLDGTLHQQDMFGSFLRYLLRRQPLNALLVLPLLPIIAIALLIKGRAARWPMSLLLWGCTFGHSEARLQTLQADFVRWFRDNVTAFPLVQERLTTYLLSSDADIWLITGSPQPLVEAVYFDTPWLPRVNLIASQIQRGYGGWVLTMRCLGHEKVAQLERKIGTPLRLYSGYSDSNQDNPLLYFCQHRWRVTPRGELQQLE
notes: N-terminal His-tagged PgpC purified in DDM
Consider B2, for which the Km in series [1] (Mg2+) was 190.2 µM.

B3: PgpB (Escherichia coli K-12) (protein)
chain: RSIARRTAVGAALLLVMPVAVWISGWRWQPGEQSWLLKAAFWVTETVTQPWGVITHLILFGWFLWCLRFRIKAAFVLFAILAAAILVGQGVKSWIKDKVQEPRPFVIWLEKTHHIPVDEFYTLKRAERGNLVKEQLAEEKNIPQYLRSHWQKETGFAFPSGHTMFAASWALLAVGLLWPRRRTLTIAILLVWATGVMGSRLLLGMHWPRDLVVATLISWALVAVATWLAQRICGPLTPPAEENREIAQREQES
notes: N-terminal His-tagged PgpB purified in DDM
In the case of B3, the Km in series [1] worked out at 179.6 µM.
